Measured values published in patent publication US11719696B2, “Methods and compounds for diagnosing threonyl-tRNA synthetase-associated diseases and conditions” (The University of Vermont and State Agricultural College, priority 2012, dated 2023).

Columns and labels:
[1] = test system: Human umbilical vein endothelial cells (HUVECs); assay: In vitro endothelial tube formation assay; type: cell-based; conditions: 100 nM purified recombinant protein in low-serum media (0.2% FBS), 6 h
Experimental: In vitro Tube Formation Assay—Tube formation assays were performed as described (Arnaoutova and Kleinman 2010; Cassavaugh, Hale et al., 201). Human Umbilical Vein Endothelial Cells (HUVECs) were seeded in 48-well plates (1.5×10^4 cells/well) coated with 100 μl of Matrigel™ Basement Membrane Matrix Growth Factor Reduced (BD Biosciences, San Jose, Calif.) and incubated in Clonetics® EGM®-2 complete media (Lonza, Annandale, N.J.) or EGM®-2 with reduced serum (0.2% fetal bovine serum). Cells were incubated at 37° C. for 6 h then fixed in 10% formalin. Fixed samples were imaged by phase-contrast microscopy or stained with Oregon Green 488 Phalloidin (Molecular Probes, Eugene, Oreg.) then imaged with fluorescence microscopy (2× objective). Number of tubes and tube lengths (in pixels) were quantified using the Simple Neurite Tracer (Longair, Baker et al. 2011) plug-in on ImageJ software (NIH). Statistical analysis of one-way ANOVA was performed with GraphPad Software. Multiple comparisons were performed using the Tukey Test.

[2] = test system: HUVECs; assay: Endothelial cell proliferation assay (alamarBlue); type: cell-based, Human; conditions: HUVECs in low serum (0.2% FBS) media
Experimental: Endothelial Cell Proliferation Assay—The […] alamarBlue® (Invitrogen) reagent was used to assess cell proliferation (Ahmed, Gogal et al. 1994). HUVECs were seeded in a 96-well dish (1×10^3 cells/well) and grown for 48 h in EGM®-2 media. Cells were incubated in 0.2% FBS EGM®-2 media or EGM®-2 complete media as indicated; VEGF (50 ng/ml) and media alone served as controls. After 48 h, 72 h, or 96 h in culture, 10 μl/well premixed alamarBlue® (Invitrogen) was added and after 3 h at 37° C. the amount of reduced alamarBlue® was quantified by fluorescence (excitation at 530 nm, emission at 590 nm) on a microplate reader (Synergy™ HT, BioTek, Winooski, Vt.).

[3] = test system: chorioallantoic membrane (CAM); assay: Chick chorioallantoic membrane (CAM) assay; type: in vivo, chicken
Experimental: Chick Chorioallantoic Membrane Assay—Fertilized chicken eggs (Sunrise Farms, Catskill, N.Y.) day 1-2 post-laying were incubated in a humidified incubator at 37° C. for 72 h. Cleaned eggs were cracked and plated in a sterile 10 cm^2 tissue culture-treated dish and incubated at 37° C. for another 7 days. On developmental day 10, 1 mm sterile gelatin sponge pieces (Surgifoam®; Johnson & Johnson Wound Management, Somerville, N.J.) were placed within the outer one-third of the membrane between large vessels. 40 μg/ml human bFGF and 2 μg/ml human VEGF were used as pro-angiogenic control compounds; 100 μg/mL retinoic acid (Sigma-Aldrich, St. Louis, Mo.) diluted in phosphate-buffered saline (PBS) was used as an angiostatic control. All compounds were applied in 10 μl to the CAM every 24 h for 72 h. Images were taken using a Leica MZ6 stereomicroscope every 24 h. Compounds were scored according to a modified version of Intensity Scoring as previously described (Ribatti, Nico et al. 2006). Briefly, each experimental condition was given a blinded score from 0-5 based on the change in the extent of vessel convergence and formation in proximity to the sponge from day 0 to day 3. Total score is averaged individual experimental condition scores from at least 15 replicates.
Fertilized chicken embryos were cultured ex-ova and, starting at developmental day 10, agents were applied daily to gelfoam sponges on the CAM. Images were recorded daily over 72 h and scored blindly according to a modified version Intensity Scoring as previously described (Ribatti, Nico, 2006). Additional details regarding methods are provided in the Methods and Materials section of Example 1.

[4] = test system: HUVECs; assay: VEGF secretion by ELISA; type: cell-based, Human; conditions: purified recombinant TARS added to cell media, 24 h
Experimental: ELISA and Lactate Dehydrogenase Assays—Confluent HUVEC cultures (passage 4) were incubated at 37° C. in Clonetics® EGM®-2 modified with 0.2% fetal bovine serum with the addition of 50 ng/ml human VEGF or 50 ng/ml human TNF-α for 6 h as indicated. Culture media supernatants were tested for levels of secreted TARS protein using the Threonyl tRNA Synthetase (TARS) ELISA Kit (USCN Life Science, Wuhan, Hubei, PRC) according to manufacturer's instructions. Cell membrane integrity was confirmed using the lactate dehydrogenase assay CytoTox-ONE™ Homogeneous Membrane Integrity Assay (Promega, Madison, Wis.) according to manufacturer's instructions and reported as percent cytotoxicity relative to a lysis control. Levels of secreted VEGF were measured using the Human VEGF ELISA kit (Thermo Scientific) per manufacturer's instructions.

B1: TARS: N-terminal His6-tagged human threonyl-tRNA synthetase expressed and purified from E. coli (protein, UniProt P26639 1-723, looked up)
Threonine--tRNA ligase 1, …: MFEEKASSPSGKMGGEEKPIGAGEEKQKEGGKKKNKEGSGDGGRAELNPWPEYIYTRLEMYNILKAEHDSILAEKAEKDSKPIKVTLPDGKQVDAESWKTTPYQIACGISQGLADNTVIAKVNNVVWDLDRPLEEDCTLELLKFEDEEAQAVYWHSSAHIMGEAMERVYGGCLCYGPPIENGFYYDMYLEEGGVSSNDFSSLEALCKKIIKEKQAFERLEVKKETLLAMFKYNKFKCRILNEKVNTPTTTVYRCGPLIDLCRGPHVRHTGKIKALKIHKNSSTYWEGKADMETLQRIYGISFPDPKMLKEWEKFQEEAKNRDHRKIGRDQELYFFHELSPGSCFFLPKGAYIYNALIEFIRSEYRKRGFQEVVTPNIFNSRLWMTSGHWQHYSENMFSFEVEKELFALKPMNCPGHCLMFDHRPRSWRELPLRLADFGVLHRNELSGALTGLTRVRRFQQDDAHIFCAMEQIEDEIKGCLDFLRTVYSVFGFSFKLNLSTRPEKFLGDIEVWDQAEKQLENSLNEFGEKWELNSGDGAFYGPKIDIQIKDAIGRYHQCATIQLDFQLPIRFNLTYVSHDGDDKKRPVIVHRAILGSVERMIAILTENYGGKWPFWLSPRQVMVVPVGPTCDEYAQKVRQQFHDAKFMADIDLDPGCTLNKKIRNAQLAQYNFILVVGEKEKISGTVNIRTRDNKVHGERTISETIERLQQLKEFRSKQAEEEF
modifications: N-terminal His6 tag
notes: N-terminal His6-tagged human threonyl-tRNA synthetase expressed and purified from E. coli
- number of tube branches on addition of protein [1]: significantly increased the number of tube branches
- cell proliferation with protein [2]: did not exert a significant effect
- sensitivity of the protein's CAM angiogenic effect to BC194 ([3]; protein co-applied with BC194): sensitive to BC194
- CAM vessel formation / vascularization on application of protein ([3]; purified protein applied daily to sponge on CAM, 72 h): stimulated vessel formation
- secretion of VEGF (ELISA) [4]: did not induce secretion of VEGF
